This assay has as its target T1, SARS-CoV-2 nsp12 (RNA-dependent RNA polymerase with N-terminal NiRAN domain) (SARS-CoV-2, UniProt P0DTD1).
T1 construct: also called WT nsp12; RdRp
In words: cryo-EM structure. The note with it: both partners purified.

B1: SARS-CoV-2 nsp9 (native N terminus) (natural protein)
chain: NNELSPVALRQMSCAAGTTQTACTDDNALAYYNTTKGGRFVLALLSDLQDLKWARFPKSDGTGTIYTELEPPCRFVTDTPKGPKVKYLYFIKGLNNLNRGMVLGSLAATVRLQ
notes: also called native nsp9
B1: the binding result is given as “binds”.

(Values after paper PMC9492545 (Nature, 2022).)
